Assay results taken from publication PMC5512084.

How the values were obtained:
[1] = biological target: mononucleosome (calf thymus histone octamer assembled on 601 nucleosome positioning sequence DNA) (bovine (calf thymus))
[2] = biological target: mononucleosome (calf thymus histone octamer assembled on 601 nucleosome positioning sequence DNA) (bovine (calf thymus)); experiment: native gel or EMSA; 2 nM IRDYE-labeled mononucleosome with 50 bp of linker DNA on both ends, 2-fold dilution series of CHD enzyme; EMSA buffer (20 mM Tris HCl pH 8.0, 75 mM NaCl, 5 mM MgCl2), 30 min at 25 °C, 4% native PAGE

| Km of nucleosome-stimulated ATP hydrolysis (nucleosome concentration at half-maximal ATPase activation; mononucleosome with 50-bp linker DNA on both sides) [1] [nM] | fold affinity against the nucleosome with only one 100-bp DNA linker [2] [fold] | Substance |
| --- | --- | --- |
| 6 |  | CHD7 (from UniProt Q9P2D1 1-2997) (enzyme) |
| 55 | 2 | CHD8 (from UniProt Q9HCK8 1-2581) (enzyme) |

| Substance | Km of nucleosome-stimulated ATP hydrolysis (nucleosome concentration at half-maximal ATPase activation; mononucleosome with 50-bp linker DNA on both sides) [1] [nM] | fold affinity against the nucleosome with only one 100-bp DNA linker [2] [fold] |
| --- | --- | --- |
| CHD6 (from UniProt Q8TD26 1-2715) (enzyme) | 6 |  |
